According to article PMC7844570:

Target: L-lysine α-oxidase precursor from Trichoderma viride (Trichoderma viride)
Assay: crystal structure; prLysOX crystals by sitting-drop vapor diffusion at 20 °C, 0.1 M Tris-HCl pH 8.0-9.0, 2-2.1 M ammonium dihydrogen phosphate; space group C222(1); one molecule in the asymmetric unit, dimer formed by crystallographic two-fold symmetry; 1.97 Å

L-lysine α-oxidase precursor from Trichoderma viride (enzyme)
stoichiometry N: 2
